Measurements: paper PMC13181761, “New Analogs of the Compstatin Family of Clinical Complement Inhibitors with Low Picomolar Target Affinity” (Journal of Medicinal Chemistry, 2026)
Bridges are numbered along the chain shown (N, C = ends). Where no end group is shown, it is not given here. [ ]: non-standard residue; d: D form. Trp(1-Me) = Cn1cc(C[C@H](N)C(=O)O)c2ccccc21; Nva(3-Et) = CCC(CC)[C@H](N)C(=O)O; Asu = N[C@@H](CCCCCC(=O)O)C(=O)O; NMeI = CC[C@H](C)[C@H](NC)C(=O)O; Sar = CNCC(=O)O

B1: Cp01 W7Bta analog (peptide)
chain: ICVWQDXGAHRCT
modifications: (3-benzothienyl)alanine (Bta) at position 7; acetyl at position 0; cyclic (cyclized by H2O2)
B2: Cp01 Val3Tbg analog (peptide)
chain: ICXWQDWGAHRCT
modifications: α-tert-butyl-glycine (Tbg) at position 3; acetyl at position 0; cyclic (cyclized by H2O2)
B3: Cp01 Val3Nva analog (peptide)
chain: ICXWQDWGAHRCT
modifications: not fully specified; norvaline (Nva) at position 3; acetyl at position 0; cyclic (cyclized by H2O2)

Legend:
[1] = target: T1, human C3b (human, UniProt P01024 749-1663); assay: SPR; Biacore T200; human C3b amine-coupled; multicycle kinetics, serial 2-fold dilutions of peptide, 120 s injection, 180 s dissociation, regeneration 1 M NaCl; 25 °C, HBST pH 7.4; Langmuir 1:1 fit, KD = kd/ka; mean of 3 experiments; details: both partners purified
T1 construct: Complement C3 beta chain, human; cut product of the C3 precursor; C3b alpha chain (C3 alpha chain after release of C3a), human; Two-chain fragment of C3; amine-coupled to the chip in SPR, free in the cryo-EM sample; also called hC3b; plasma-purified C3b; source: bought: Complement Technology (plasma-purified)

[2] = target: T1, human C3b; assay: SPR; Biacore T200; human C3b amine-coupled; single-cycle kinetics, 5 increasing concentrations (0.5-40 nM), final dissociation 100-240 min; 25 °C, HBST pH 7.4; global Langmuir 1:1 fit; mean of 3 experiments; details: both partners purified

| Binder | Kd [1] [nM] | other results |
| --- | --- | --- |
| Ac-ICVWQDW[dA]AHRCT (disulfide 2-12 (inferred)) [Cp01 Gly8D-Ala analog] | > 16000 | – |
| B1 | > 16000 | – |
| B2 | 103 | – |
| [dY]IC[Nva(3-Et)][Trp(1-Me)]QDW[Sar]AHRC[NMeI] (disulfide 3-13 (inferred)) [Cp40 Dea3 analog] | – | Kd [2]: 13.6 nM; koff [2]: 0.006 s⁻¹; kon [2]: 430000 M⁻¹ s⁻¹ |
| B3 | 1660 | – |
| Ac-ICVWQ[Asu]WGAHRCT (disulfide 2-12 (inferred)) [Cp01 Asp6Asu analog] | 2080 | koff [1]: 0.23 s⁻¹; kon [1]: 120000 M⁻¹ s⁻¹ |
